This is an account of results in PMC4022432, “Complete steady-state rate equation for DNA ligase and its use for measuring product kinetic parameters of NAD^+-dependent DNA ligase from Haemophilus influenzae” (BMC Research Notes, 2014).

Substrate in the data set: NC(=O)c1ccc[n+]([C@@H]2O[C@H](COP(=O)(O)OP(=O)(O)OC[C@H]3O[C@@H](n4cnc5c(N)ncnc54)[C@H](O)[C@@H]3O)[C@@H](O)[C@H]2O)c1
Nature of the data set: purified protein. Conditions: co-substrate nicked DNA 10-80 nM; room temperature; value from NMN study.

Broadly, the Km is the concentration of substrate that gives half-maximal velocity.

Source text: FRET nick-ligation assay, global nonlinear least-squares fit of NMN product inhibition on NAD^+-dependent DNA ligase from Haemophilus influenzae

B1: NAD^+-dependent DNA ligase from Haemophilus influenzae (Haemophilus influenzae Rd KW20) (protein)
chain: MTNIQTQLDNLRKTLRQYEYEYHVLDNPSVPDSEYDRLFHQLKALELEHPEFLTSDSPTQRVGAKPLSGFSQIRHEIPMLSLDNAFSDAEFNAFVKRIEDRLILLPKPLTFCCEPKLDGLAVSILYVNGELTQAATRGDGTTGEDITANIRTIRNVPLQLLTDNPPARLEVRGEVFMPHAGFERLNKYALEHNEKTFANPRNAAAGSLRQLDPNITSKRPLVLNAYGIGIAEGVDLPTTHYARLQWLKSIGIPVNPEIRLCNGADEVLGFYRDIQNKRSSLGYDIDGTVLKINDIALQNELGFISKAPRWAIAYKFPAQEELTLLNDVEFQVGRTGAITPVAKLEPVFVAGVTVSNATLHNGDEIERLNIAIGDTVVIRRAGDVIPQIIGVLHERRPDNAKPIIFPTNCPVCDSQIIRIEGEAVARCTGGLFCAAQRKEALKHFVSRKAMDIDGVGGKLIEQLVDRELIHTPADLFKLDLTTLTRLERMGAKSAENALNSLENAKSTTLARFIFALGIREVGEATALNLANHFKTLDALKDANLEELQQVPDVGEVVANRIFIFWREAHNVAVVEDLIAQGVHWETVEVKEASENLFKDKTVVLTGTLTQMGRNEAKALLQQLGAKVSGSVSSKTDFVIAGDAAGSKLAKAQELNITVLTEEEFLAQITR
For B1, the Km was 0.65 ± 0.08 µM.
